Reference: patent US20090070890A1 (AFFITECH, published 2009)
Blank lines part the entries; values can stand above or below the binder they belong to.

Experiments:
[1] = molecular target: T1, mouse recombinant CD166-Fc (R&D systems) (mouse, UniProt Q61490 28-527); assay: ELISA on coated mouse CD166-Fc
T1 construct: Bought reagent; also called mouse CD166-Fc; not shown: Fc part of the commercial chimera, not described
T1 sequence (looked up): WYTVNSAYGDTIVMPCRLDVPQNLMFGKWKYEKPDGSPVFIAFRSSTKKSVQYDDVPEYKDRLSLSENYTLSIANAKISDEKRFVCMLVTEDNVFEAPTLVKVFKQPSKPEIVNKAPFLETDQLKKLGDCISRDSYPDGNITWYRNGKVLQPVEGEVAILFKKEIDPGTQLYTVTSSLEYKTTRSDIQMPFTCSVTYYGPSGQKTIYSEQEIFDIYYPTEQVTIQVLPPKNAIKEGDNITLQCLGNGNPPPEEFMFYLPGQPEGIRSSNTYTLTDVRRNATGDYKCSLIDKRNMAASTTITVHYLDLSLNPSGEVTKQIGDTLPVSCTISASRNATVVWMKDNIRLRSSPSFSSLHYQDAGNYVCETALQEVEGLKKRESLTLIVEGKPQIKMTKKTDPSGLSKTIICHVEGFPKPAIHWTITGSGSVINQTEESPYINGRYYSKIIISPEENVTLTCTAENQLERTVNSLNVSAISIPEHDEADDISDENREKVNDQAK

[2] = molecular target: T2, CD166 (ALCAM, activated leukocyte cell adhesion molecule), native, of human tumor cell lines (human, UniProt Q13740 28-583); assay: western blot, non-reducing SDS-PAGE, probed with EJ212/007-Cl2-5 IgG and anti-human IgG-HRP
T2 construct: whole, on cells; The antigen was identified as CD166 by mass spectrometry of protein from PM-1 cells; also called CD166 antigen; MEMD
T2 sequence (looked up): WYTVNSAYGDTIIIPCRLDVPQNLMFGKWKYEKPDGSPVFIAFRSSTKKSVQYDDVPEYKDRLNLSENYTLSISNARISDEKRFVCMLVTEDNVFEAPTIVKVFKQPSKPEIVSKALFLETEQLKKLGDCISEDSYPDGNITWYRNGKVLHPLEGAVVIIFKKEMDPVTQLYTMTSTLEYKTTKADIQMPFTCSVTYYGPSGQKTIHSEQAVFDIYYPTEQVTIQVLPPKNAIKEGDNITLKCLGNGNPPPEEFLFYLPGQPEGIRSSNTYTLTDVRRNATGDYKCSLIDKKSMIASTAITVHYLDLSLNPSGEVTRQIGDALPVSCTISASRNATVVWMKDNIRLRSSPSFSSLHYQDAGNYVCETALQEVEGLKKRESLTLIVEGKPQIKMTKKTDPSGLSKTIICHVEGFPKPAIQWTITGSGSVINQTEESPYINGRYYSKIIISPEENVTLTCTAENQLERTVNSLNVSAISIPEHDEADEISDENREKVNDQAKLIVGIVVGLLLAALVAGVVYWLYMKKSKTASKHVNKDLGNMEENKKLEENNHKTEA
Excerpt: Membrane proteins were isolated from two EJ212/007-Cl2-5 antigen-positive cell lines (PM-1 and DU-145; determined by FACS analysis) and concentrated by ultra-centrifugation. The membranes were resuspended in detergent (CHAPS/DOC) which was then removed from the sample by using Detergent Removing Resin (Pierce) in column format. The purified membrane proteins before and after sample concentration, and the cytosolic fraction were subsequently analysed by SDS-PAGE/Western under non-reducing conditions. The blot was probed with the EJ212/007-Cl2-5 IgG and corresponding secondary anti-human IgG coupled to HRP in order to visualise the proteins by chemiluminescence.

[3] = molecular target: T3, human recombinant CD166-Fc (R&D systems), complete extracellular domain (human, UniProt Q13740 28-527); assay: ELISA, plate coated with 10 ug/ml CD166-Fc, detection with anti-kappa-HRP and ABTS, absorbance at 405 nm
T3 construct: extracellular domain; Bought reagent; also called recombinant CD166-Fc antigen; human CD166-Fc; not shown: Fc part of the commercial chimera, not described
T3 sequence (looked up): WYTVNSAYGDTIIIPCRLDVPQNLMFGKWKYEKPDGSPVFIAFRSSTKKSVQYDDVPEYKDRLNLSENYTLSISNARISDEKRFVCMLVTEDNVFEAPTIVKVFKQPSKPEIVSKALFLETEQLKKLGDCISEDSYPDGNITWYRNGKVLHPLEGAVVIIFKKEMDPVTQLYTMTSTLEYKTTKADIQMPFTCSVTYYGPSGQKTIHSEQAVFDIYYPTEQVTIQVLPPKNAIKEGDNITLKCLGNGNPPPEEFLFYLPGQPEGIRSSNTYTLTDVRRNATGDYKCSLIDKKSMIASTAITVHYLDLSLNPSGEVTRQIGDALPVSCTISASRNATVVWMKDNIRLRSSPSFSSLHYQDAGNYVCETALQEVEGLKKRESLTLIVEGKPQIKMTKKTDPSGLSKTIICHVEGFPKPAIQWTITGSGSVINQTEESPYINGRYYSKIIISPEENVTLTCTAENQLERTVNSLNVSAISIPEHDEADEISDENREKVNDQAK
Procedure: Binding of the EJ212/007-Cl2-5 IgG to the CD166 antigen was tested in ELISA. An ELISA plate was coated overnight with 10 μg/ml of a commercially available recombinant CD166-Fc antigen (R&D systems), CD166 d1-5/Fc or CD166 d1-3/Fc. An IgG with irrelevant binding specificity was added to the ELISA as a negative control. After washing with PBS/0.05% Tween the plate was incubated for 1 hour with a dilution series of EJ212/007-Cl2-5 IgG ranging from 10 to 0.16 μg/ml. Detection of the bound IgG was done by incubation for 1 hour with 1 μg/ml anti-kappa-HRP and 15 minutes with the 1-step ABTS substrate (Pierce). The absorbance was measured at 405 nm.

Recombinant ALCAM/Fc = molecular target: T4, Recombinant ALCAM/Fc (UniProt Q13740 28-527, limits assumed); assay: Biacore T100; ALCAM/Fc (250 RU) amine-coupled to a CM5 chip; Fab at 3.9 to 125 nM; heterogeneous ligand model; Fab, not IgG; ALCAM/Fc on the chip
T4 construct: also called CD166 antigen (Biacore)
T4 sequence (looked up): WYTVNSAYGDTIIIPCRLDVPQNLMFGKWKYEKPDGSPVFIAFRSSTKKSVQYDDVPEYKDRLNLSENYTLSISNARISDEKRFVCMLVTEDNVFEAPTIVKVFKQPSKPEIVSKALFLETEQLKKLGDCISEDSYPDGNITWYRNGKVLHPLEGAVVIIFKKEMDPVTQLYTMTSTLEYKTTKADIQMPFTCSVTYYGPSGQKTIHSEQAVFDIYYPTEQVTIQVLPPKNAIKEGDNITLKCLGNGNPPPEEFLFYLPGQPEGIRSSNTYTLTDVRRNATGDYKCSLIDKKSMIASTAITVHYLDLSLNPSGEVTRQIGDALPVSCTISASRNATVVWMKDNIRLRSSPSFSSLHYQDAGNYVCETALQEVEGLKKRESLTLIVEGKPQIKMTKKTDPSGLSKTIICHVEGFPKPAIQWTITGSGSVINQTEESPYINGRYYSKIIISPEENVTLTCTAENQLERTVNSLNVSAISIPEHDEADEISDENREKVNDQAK
Procedure: Binding affinity of EJ212/007-Cl2-5 Fab fragments to the CD166 antigen was measured by Biacore analysis. Recombinant ALCAM/Fc (250RU) was immobilized by amine coupling to a CM5 chip. A range of concentrations of the Fab antibody, from 3.9 to 125 nM (nanomolar), were run over the chip. The binding affinity, expressed as the Kd, was calculated using the Heterogen ligand binding model in the Biacore T100 Evaluation software.

[4] = molecular target: T2, CD166 (ALCAM, activated leukocyte cell …); assay: photo-cross-linking of linker-coupled scFv to PM-1 cells, His-column and streptavidin-bead purification, blot detected with streptavidin-HRP
Procedure: PM-1 cells (2×10⁶) were incubated with 25 μg of the above linker coupled scFv. After washing with PBS the cells were exposed to UV light at 302 nm. This was followed by lysis of the cells by NP-40 in the presence of DNAsel. After incubation on ice SDS was added and the samples were loaded on a His-column. The column was washed in the presence of NP-40 and SDS and the protein of interest was eluted with 5 mM DTT in the same detergents. The eluted sample was then mixed with streptavidin beads and the beads were washed in the presence of SDS. The SDS concentrations was increased and the beads were incubated at 90° C. for five minutes. The supernatant was then run on a 7% SDS-PAGE, transferred to a PVDF membrane and detected with streptavidin-HRP.

- binding result [1]: binds
- binding result [2]: binds
- binding result [3]: binds
B1: EJ212/007-Cl2-5 IgG (antibody)
heavy: not shown
light: DIRMTQSPSFLSASVGDRVTITCRASQDISSYFAWYQQKPGKAPKLLIYAASTLRSGVPSRFSGSGSGTDFTLTISSLQPEDFATYYCQQSYSTPRITFGQGTRLEIKRTVAAPSVFIFPPSDEQLKSGTASVVCLLNNFYPREAKVQWKVDNALQSGNSQESVTEQDSKDSTYSLSSTLTLSKADYEKHKVYACEVTHQGLSSPVTKSFNRGEC
notes: Human IgG1/kappa; also called IgG form of EJ212/007-Cl2-5; EJ212/007-Cl2-5 IgG antibody

- Kd (Recombinant ALCAM/Fc): 29 nM
B2: EJ212/007-Cl2-5 Fab (Fab, V domains shown)
VH: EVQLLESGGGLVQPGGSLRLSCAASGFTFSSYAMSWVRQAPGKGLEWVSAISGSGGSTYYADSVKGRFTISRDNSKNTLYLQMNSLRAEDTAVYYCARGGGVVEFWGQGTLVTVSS
VL: DIRMTQSPSFLSASVGDRVTITCRASQDISSYFAWYQQKPGKAPKLLIYAASTLRSGVPSRFSGSGSGTDFTLTISSLQPEDFATYYCQQSYSTPRITFGQGTRLEIK
notes: Fab format of EJ212/007-Cl2-5; The CH1 and CL of the Fab, and how it was made, are not described; also called EJ212/007-Cl2-5 Fab fragments; Fab antibody

- binding result [4]: binds
B3: scFv EJ212/007-Cl2-5 T68C (scFv, name in Kabat numbering)
scFv: EVQLLESGGGLVQPGGSLRLSCAASGFTFSSYAMSWVRQAPGKGLEWVSAISGSGGSTYYADSVKGRFCISRDNSKNTLYLQMNSLRAEDTAVYYCARGGGVVEFWGQGTLVTVSSKLSGSASAPKLEEGEFSEARVDIRMTQSPSFLSASVGDRVTITCRASQDISSYFAWYQQKPGKAPKLLIYAASTLRSGVPSRFSGSGSGTDFTLTISSLQPEDFATYYCQQSYSTPRITFGQGTRLEIK
modifications: Mts-Atf-LC-Biotin linker (Pierce 33083) coupled to the introduced Cys 68 (Kabat)
notes: Expressed in E. coli TG1; also called EJ212/007-Cl2-5 scFv (His-tagged) with a cysteine introduced by point mutation at position 68 (Kabat, RFCIS); linker coupled scFv
